Non-standard residues stand in square brackets, D forms with d. No end group written: not given here. *: point of attachment. EDDnp = O=[N+]([O-])c1ccc(NCCN*)c([N+](=O)[O-])c1; 2Abz = Nc1ccccc1C(=O)O

This experiment concerns the target T1, Recombinant KLK2 (Homo sapiens, UniProt P20151).
T1 construct: made in house; host or cells: baculovirus-insect cell line system
The experiment is described as follows: Hydrolysis of FRET peptides by recombinant KLK2 (kinetic parameters). Format: biochemical. An excerpt:
Obtained from a baculovirus-insect cell line system, purified, and activated as previously reported,[14] MUGB (4-methylumbelliferyl p-guanidino benzoate hydrochloride) was used for the spectrofluorimetric determination of molar concentrations of active KLK2.[15] KLK3 was obtained and assayed as previously reported.[3]
All of the FRET peptides were obtained by solid-phase peptide synthesis. The purity of FRET peptides to 95% or higher was obtained by semipreparative HPLC on a C18 reversed-phase column and used as protease substrates, as previously reported.[5] Details about the purification and quality of the FRET peptides are provided in the Supporting Information. The enzymatic kinetic measurements were all performed with FRET peptides as previously described.[5]
Five series of FRET peptides derived from Abz-KLRSSK-Q-EDDnp were assayed with KLK2 in 20 mM Tris–HCl, pH 8.0, and 1 M sodium citrate. […] The specificity of subsites S3, S2, S1’, and S2’ was explored by the FRET peptide series Abz-XLRSSKQ-EDDnp (for S3), Abz-KXRSSKQ-EDDnp (for S2), Abz-KLRXSKQ-EDDnp (for S1’), and Abz-KLRSXKQ-EDDnp (for S2’). All of them were hydrolyzed only at R–S or R–X peptide bonds, and the kinetic parameters for their hydrolysis by KLK2 are listed in Table 1.

[1] abbreviates: pH 8.0, 20 mM Tris–HCl, 1 M sodium citrate, 37 °C, KLK2 1.6 nM, three enzymatic reactions, standard errors 5% or less.

T1 sequence (P20151 25-261): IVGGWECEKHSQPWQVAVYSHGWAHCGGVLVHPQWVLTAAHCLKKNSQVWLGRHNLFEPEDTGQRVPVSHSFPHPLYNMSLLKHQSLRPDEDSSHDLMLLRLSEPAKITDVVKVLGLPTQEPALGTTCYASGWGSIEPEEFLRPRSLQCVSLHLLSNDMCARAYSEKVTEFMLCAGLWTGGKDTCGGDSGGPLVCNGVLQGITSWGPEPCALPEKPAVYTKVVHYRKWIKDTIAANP

In general, Km refers to the concentration of substrate that gives half-maximal velocity. As to “Abz-KLRSSKQ-EDDnp [parent FRET peptide, cleaved at the R–S peptide bond by KLK2]”, the kcat/Km (20 mM Tris–HCl, pH 8.0, 1 M sodium citrate) is listed as 1738 mM^–1 s^–1. In addition, under setting [1], the Km was determined as 6.5 µM, the kcat is 11.3 s^–1 and the kcat/Km amounted to 1738 s^–1 mM^–1.

On to “Abz-KLRSXKQ-EDDnp, X = A: FRET peptide, S2’ series, X = A ([2Abz]KLRSAKQ-EDDnp)”, for which, under setting [1], the Km came out at 3.8 µM, the kcat was 12.2 s^–1 and the kcat/Km came out at 3211 s^–1 mM^–1.

Turning to “Abz-KLRSXKQ-EDDnp, X = E: FRET peptide, S2’ series, X = E ([2Abz]KLRSEKQ-EDDnp)”, under setting [1], the Km was determined as 8 µM, the kcat was found to be 7.1 s^–1 and the kcat/Km was 888 s^–1 mM^–1.

Regarding “Abz-KLRSXKQ-EDDnp, X = F: FRET peptide, S2’ series, X = F ([2Abz]KLRSFKQ-EDDnp)”, under setting [1], the Km stood at 2.4 µM, the kcat turned out to be 12.4 s^–1 and the kcat/Km amounted to 5167 s^–1 mM^–1.

Regarding “Abz-KLRSXKQ-EDDnp, X = G: FRET peptide, S2’ series, X = G ([2Abz]KLRSGKQ-EDDnp)”, under setting [1], the Km was determined as 4.5 µM, the kcat came out at 3.5 s^–1 and the kcat/Km is on record as 778 s^–1 mM^–1.

Turning to “Abz-KLRSXKQ-EDDnp, X = H: FRET peptide, S2’ series, X = H (N-terminal Abz, C-terminal EDDnp; X = H)”, under setting [1], the Km was 5.9 µM and the kcat worked out at 4.4 s^–1.

Turning to “Abz-KLRSXKQ-EDDnp, X = I: FRET peptide, S2’ series, X = I ([2Abz]KLRSIKQ-EDDnp)”, under setting [1], the Km is 2.8 µM, the kcat is on record as 4.4 s^–1 and the kcat/Km was found to be 1571 s^–1 mM^–1.

For the substance “Abz-KLRSXKQ-EDDnp, X = L: FRET peptide, S2’ series, X = L ([2Abz]KLRSLKQ-EDDnp)”, under setting [1], the Km is 2.8 µM, the kcat is reported as 8.5 s^–1 and the kcat/Km was found to be 3036 s^–1 mM^–1.

For the substance “Abz-KLRSXKQ-EDDnp, X = N: FRET peptide, S2’ series, X = N ([2Abz]KLRSNKQ-EDDnp)”, under setting [1], the Km worked out at 8.8 µM, the kcat was 4.9 s^–1 and the kcat/Km is recorded as 557 s^–1 mM^–1.

Take “Abz-KLRSXKQ-EDDnp, X = Q: FRET peptide, S2’ series, X = Q ([2Abz]KLRSQKQ-EDDnp)”: under setting [1], the Km worked out at 5.2 µM, the kcat came out at 6.5 s^–1 and the kcat/Km stood at 1250 s^–1 mM^–1.

With “Abz-KLRSXKQ-EDDnp, X = R: FRET peptide, S2’ series, X = R ([2Abz]KLRSRKQ-EDDnp)”, under setting [1], the Km was 3.6 µM, the kcat is 3.2 s^–1 and the kcat/Km is listed as 888 s^–1 mM^–1.

“Abz-KLRSXKQ-EDDnp, X = V: FRET peptide, S2’ series, X = V ([2Abz]KLRSVKQ-EDDnp)”: under setting [1], the Km came out at 4.2 µM, the kcat is reported as 15.3 s^–1 and the kcat/Km is listed as 3643 s^–1 mM^–1.

Turning to “Abz-KLRXSKQ-EDDnp, X = E: FRET peptide, S1’ series, X = E ([2Abz]KLRESKQ-EDDnp)”, under setting [1], the Km was determined as 6.6 µM, the kcat came out at 10.3 s^–1 and the kcat/Km is on record as 1561 s^–1 mM^–1.

With “Abz-KLRXSKQ-EDDnp, X = F: FRET peptide, S1’ series, X = F ([2Abz]KLRFSKQ-EDDnp)”, under setting [1], the Km worked out at 1.2 µM, the kcat is on record as 3.5 s^–1 and the kcat/Km was 2917 s^–1 mM^–1.

As for “Abz-KLRXSKQ-EDDnp, X = G: FRET peptide, S1’ series, X = G ([2Abz]KLRGSKQ-EDDnp)”, under setting [1], the Km is 7.3 µM and the kcat was 19.9 s^–1.

On to “Abz-KLRXSKQ-EDDnp, X = H: FRET peptide, S1’ series, X = H (N-terminal Abz, C-terminal EDDnp; X = H)”, for which, under setting [1], the Km worked out at 4.3 µM, the kcat was determined as 8.0 s^–1 and the kcat/Km is on record as 1860 s^–1 mM^–1.

Take “Abz-KLRXSKQ-EDDnp, X = I: FRET peptide, S1’ series, X = I ([2Abz]KLRISKQ-EDDnp)”: under setting [1], the Km stood at 1.8 µM, the kcat is recorded as 7.2 s^–1 and the kcat/Km is given as 4000 s^–1 mM^–1.

On to “Abz-KLRXSKQ-EDDnp, X = L: FRET peptide, S1’ series, X = L ([2Abz]KLRLSKQ-EDDnp)”, for which, under setting [1], the Km turned out to be 3.3 µM, the kcat was found to be 6.7 s^–1 and the kcat/Km is 2030 s^–1 mM^–1.

As for “Abz-KLRXSKQ-EDDnp, X = N: FRET peptide, S1’ series, X = N ([2Abz]KLRNSKQ-EDDnp)”, under setting [1], the Michaelis-Menten constant (Km) worked out at 8.6 µM, the kcat was determined as 14.8 s^–1 and the kcat/Km was 1733 s^–1 mM^–1.

As for “Abz-KLRXSKQ-EDDnp, X = Q: FRET peptide, S1’ series, X = Q ([2Abz]KLRQSKQ-EDDnp)”, under setting [1], the Km worked out at 6.1 µM, the kcat is given as 8.5 s^–1 and the kcat/Km is on record as 1393 s^–1 mM^–1.

In the case of “Abz-KLRXSKQ-EDDnp, X = R: FRET peptide, S1’ series, X = R ([2Abz]KLRRSKQ-EDDnp)”, under setting [1], the Km turned out to be 5.4 µM, the kcat came out at 8.2 s^–1 and the kcat/Km is 1519 s^–1 mM^–1.

Take “Abz-KLRXSKQ-EDDnp, X = V: FRET peptide, S1’ series, X = V ([2Abz]KLRVSKQ-EDDnp)”: under setting [1], the Km was determined as 2.2 µM, the kcat is listed as 8.1 s^–1 and the kcat/Km was found to be 3682 s^–1 mM^–1.

Regarding “Abz-KXRSSKQ-EDDnp, X = A: FRET peptide, S2 series, X = A [Abz-KXRSSKQ-EDDnp, X = A] ([2Abz]KARSSKQ-EDDnp)”, under setting [1], the Km was 4.8 µM, the kcat is listed as 2.2 s^–1 and the kcat/Km is 458 s^–1 mM^–1.

In the case of “Abz-KXRSSKQ-EDDnp, X = E: FRET peptide, S2 series, X = E [Abz-KXRSSKQ-EDDnp, X = E] ([2Abz]KERSSKQ-EDDnp)”, under setting [1], the Km was 9.1 µM, the kcat was determined as 1.0 s^–1 and the kcat/Km stood at 110 s^–1 mM^–1.

In the case of “Abz-KXRSSKQ-EDDnp, X = F: FRET peptide, S2 series, X = F ([2Abz]KFRSSKQ-EDDnp)”, under setting [1], the Km was found to be 1.6 µM, the kcat stood at 4.1 s^–1 and the kcat/Km amounted to 2563 s^–1 mM^–1.

With “Abz-KXRSSKQ-EDDnp, X = G: FRET peptide, S2 series, X = G ([2Abz]KGRSSKQ-EDDnp)”, under setting [1], the Km worked out at 12.4 µM, the kcat was determined as 1.0 s^–1 and the kcat/Km is listed as 81 s^–1 mM^–1.

For the substance “Abz-KXRSSKQ-EDDnp, X = H: FRET peptide, S2 series, X = H (N-terminal Abz, C-terminal EDDnp; X = H)”, under setting [1], the Km amounted to 9.6 µM, the kcat is recorded as 4.7 s^–1 and the kcat/Km is given as 490 s^–1 mM^–1.

As for “Abz-KXRSSKQ-EDDnp, X = I: FRET peptide, S2 series, X = I [Abz-KXRSSKQ-EDDnp, X = I] (Abz-KIRSSKQ-EDDnp)”, under setting [1], the Km was 4.5 µM, the kcat is recorded as 4.7 s^–1 and the kcat/Km came to 1044 s^–1 mM^–1.

Regarding “Abz-KXRSSKQ-EDDnp, X = K: FRET peptide, S2 series, X = K (Abz-KKRSSKQ-EDDnp)”, under setting [1], the Michaelis constant (Km) came out at 7.2 µM, the kcat is 3.0 s^–1 and the kcat/Km is given as 417 s^–1 mM^–1.

“Abz-KXRSSKQ-EDDnp, X = N: FRET peptide, S2 series, X = N (Abz-KNRSSKQ-EDDnp)”: under setting [1], the Km is 10.1 µM, the kcat amounted to 3.3 s^–1 and the kcat/Km came out at 327 s^–1 mM^–1.

Consider “Abz-KXRSSKQ-EDDnp, X = Q: FRET peptide, S2 series, X = Q [Abz-KXRSSKQ-EDDnp, X = Q] (Abz-KQRSSKQ-EDDnp)”, for which, under setting [1], the Km amounted to 8.3 µM, the kcat was determined as 6.4 s^–1 and the kcat/Km amounted to 771 s^–1 mM^–1.

For “Abz-KXRSSKQ-EDDnp, X = R: FRET peptide, S2 series, X = R (Abz-KRRSSKQ-EDDnp)”, under setting [1], the Km amounted to 5.2 µM, the kcat is listed as 8.7 s^–1 and the kcat/Km was determined as 1673 s^–1 mM^–1.

Consider “Abz-KXRSSKQ-EDDnp, X = S: FRET peptide, S2 series, X = S (Abz-KSRSSKQ-EDDnp)”, for which, under setting [1], the Km came out at 9.1 µM, the kcat was determined as 1.1 s^–1 and the kcat/Km is on record as 121 s^–1 mM^–1.

In the case of “Abz-KXRSSKQ-EDDnp, X = T: FRET peptide, S2 series, X = T (Abz-KTRSSKQ-EDDnp)”, under setting [1], the Km came to 10.5 µM, the kcat is recorded as 3.6 s^–1 and the kcat/Km amounted to 343 s^–1 mM^–1.

As for “Abz-KXRSSKQ-EDDnp, X = V: FRET peptide, S2 series, X = V (Abz-KVRSSKQ-EDDnp)”, under setting [1], the Km turned out to be 8.5 µM, the kcat stood at 9.9 s^–1 and the kcat/Km came to 1165 s^–1 mM^–1.

(Values after paper PMC11339918, “Extracellular Domain of IL-10 Receptor Chain-2 (IL-10R2) and Its Arginine-Containing Peptides Are Susceptible Substrates for Human Prostate Kallikrein-2 (KLK2)” (Biochemistry, 2024).)
